Assay results as given in patent US9428586B2, “Heparanase splice variant” (COMPUGEN LTD, priority 2010, dated 2016).

Tests used:
[1] = system: Src; assay: Src phosphorylation (immunoblot, densitometry) in 293 cells; format: cell-based, human; settings: over expressing 293 cells, serum-free
Procedure: FIG. 3. T5 augments Src phosphorylation. A. Over expression. CAG myeloma (left) and 293 (right) cells infected with heparanase (Hepa), T5, or control empty vector (Vo) were grown in the absence (-) or presence (+) of heparin (50 μg/ml) under serum-free conditions. Total cell lysates were subjected to immunoblotting applying anti-heparanase 1453 (upper and second panels), anti-phospho-Src (p-Src, third panels), anti-Src (fourth panels) anti-phospho-Erk (p-Erk, fifth panels), and anti-Erk2 (sixth panels) antibodies. Src phosphorylation index was calculated by densitometry analysis of phosphorylated Src levels divided by the total Src values. […] B. Gene silencing. Parental 293 cells were transfected with anti-heparanase, anti-T5, or control siRNAs. Total RNA was extracted and RT-PCR analysis was performed applying T5 (upper panel), heparanase (Hepa, second panel) and GAPDH (third panel) specific primers. Corresponding cell lysates were subjected to immunoblotting applying phospho-Src (p-Src, fourth panel), Src (fifth panel), phospho-Erk (p-Erk, sixth panel) and Erk2 (seventh panel) antibodies. Src phosphorylation index was calculated as above and is shown graphically in the lower panel. Note decreased Src phosphorylation levels upon T5 down regulation. […]

[2] = Heparanase activity assay of transfected 293 cell lysates on 35S-labelled ECM; format: biochemical, human
Excerpt: FIG. 2. Cloning and expression of T5. A. RT-PCR analysis. Total RNA was extracted from the indicated cell line and subjected to RT-PCR analysis applying T5 (upper panel), heparanase (second panel) and GAPDH (third panel) specific primers, specified in the ‘Materials and Methods’ section. B. T5 transfection. […] Control cells were transfected with an empty vector (Vo). Cell lysates (left) and cell conditioned medium (right) were blotted with anti-heparanase 1453 antibody. C. Cellular localization. Stably transfected 293 cells were triple stained for Myc-tag (T5; middle, red), the ER marker calnexin (ER, left, green), and merged with cell nuclei labeled with TO-PRO (right, blue). Cells were similarly stained with anti-Myc-tag (T5; middle, red), the Golgi marker wheat germ agglutinin-FITC (Golgi, left, green) and merged with cell nuclei labeled with TO-PRO (right, blue). […] D. Enzymatic activity. 293 cells transfected with heparanase (Hepa), T5 or control empty vector (Vo) were subjected to three freeze-thaw cycles and applied onto culture dishes coated with ^35S-labelled ECM. Release of sulfate-labeled material eluted in fractions 15-30 was evaluated as measure of heparanase activity, as described in ‘Materials and Methods’. […]

[3] = system: CAG myeloma cells; assay: Cell proliferation by BrdU incorporation, CAG myeloma cells; format: cell-based, human; settings: infected CAG cells, serum-free 20 h, BrdU 2 h; control Vo 24±3%
Procedure: (§1) FIG. 4. T5 augments cell proliferation. A. BrdU incorporation. Morphology of control (Con), heparanase (Hepa)- and T5-infected CAG myeloma cell cultures is shown in the upper panels. […] Sub-confluent cultures of control (Vo), heparanase (Hepa)- and T5-infected CAG cells were grown in serum-free medium for 20 h followed by incubation with BrdU (1:1000) for 2 h. Cells were then fixed and immunostained with anti BrdU monoclonal antibody. Positively stained, red-brown nuclei were counted vs. blue, hematoxilin counter-stained nuclei. At least 1000 cells were counted for each cell type and the percentage of positively stained cells is noted in each panel. Fold increase in BrdU incorporation is shown graphically on the right panel. Gene silencing. 293 cells were transfected with anti-GFP (si-GFP), anti-heparanase (si-Hepa) or anti-T5 siRNA oligonucleotides and BrdU incorporation was evaluated as above except that cells were kept in serum-containing medium (lower panels). Note 2-fold decrease in BrdU incorporation following heparanase or T5 gene silencing (lower right panel). B. Colony formation in soft agar. […]
Cell proliferation was analyzed by BrdU incorporation using cell proliferation labeling reagent (1:1000, GE Healthcare), as described in Zetser, A., et al (2003 Cancer Res 63, 7733-7741). At least 1000 cells were counted for each cell type.

[4] = system: CAG myeloma, FaDu pharynx carcinoma and 293 cells; assay: Colony formation in soft agar; format: cell-based, human; settings: over expression in CAG myeloma, FaDu and 293 cells
Procedure: as §1
Three ml of DMEM containing 0.5% low melt agarose (Bio-Rad, Hercules, Calif.) and 10% fetal calf serum was poured into 60 mm petri dishes. […] Colonies were visualized and counted under a microscope after 2-5 weeks, as described.

B1: T5: novel splice variant of heparanase; truncated, enzymatically inactive 169 amino acid protein (protein, listed as Homo sapiens)
chain: MLLRSKPALPPPLMLLLLGPLGPLSPGALPRPAQAQDVVDLDFFTQEPLHLVSPSFLSVTIDANLATDPRFLILLGSPKLRTLARGLSPAYLRFGGTKTDFLIFDPKKESTFEERSYWQSQVNQDICKYGSIPPDVEEKLRLEWPYQEQLLLREHYQKKFKNSTYSSKK
- Src phosphorylation enhancement vs control Vo cells [1]: ~4 fold
- effect on the activity of endogenous heparanase ([2]; T5 vs. Vo transfected 293 cells): did not seem to significantly impinge on the activity of endogenous heparanase
- heparanase enzymatic activity ([2]; lysates of stably transfected 293 cells, T5 vs. Hepa): lacks heparanase enzymatic activity
- BrdU incorporation (positively stained cells) [3]: 52±5%
- colony number, size and cell density in soft agar [4]: markedly increased
